Biological target: T1, Leucine-rich repeat-containing protein 15 (LRRC15) on LRRC15-expressing cells (UniProt Q8TF66 22-581, limits assumed)
T1 construct: whole, on cells; also called leucine-rich repeat containing 15
T1 sequence (looked up): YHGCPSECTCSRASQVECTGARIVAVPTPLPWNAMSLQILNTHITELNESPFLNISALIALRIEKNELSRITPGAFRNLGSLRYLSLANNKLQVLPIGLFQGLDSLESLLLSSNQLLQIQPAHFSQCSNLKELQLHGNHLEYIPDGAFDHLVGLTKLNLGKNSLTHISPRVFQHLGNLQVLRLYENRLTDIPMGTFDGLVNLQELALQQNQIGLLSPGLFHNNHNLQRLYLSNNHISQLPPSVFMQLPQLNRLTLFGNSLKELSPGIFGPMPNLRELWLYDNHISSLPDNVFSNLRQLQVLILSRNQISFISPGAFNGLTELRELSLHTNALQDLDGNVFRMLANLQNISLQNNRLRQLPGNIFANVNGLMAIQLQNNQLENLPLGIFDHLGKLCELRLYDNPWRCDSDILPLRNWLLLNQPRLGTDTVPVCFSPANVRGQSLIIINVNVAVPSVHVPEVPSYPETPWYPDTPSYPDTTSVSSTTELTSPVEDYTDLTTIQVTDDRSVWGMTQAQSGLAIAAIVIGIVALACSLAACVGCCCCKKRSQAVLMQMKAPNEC
Assay: LigandTracer, radiolabeled antibody on live target cells
Method: DUNP 19 was developed by humanization of a hybridoma mAb generated from immunizing mice with stably transfected LRRC15-expressing 3T3 cells. […] Liquid chromatography-mass spectrometry (LC-MS) analysis of DUNP19 incubated with LRRC15-expressing cell lines confirmed molecular binding specificity. […] LigandTracer (Ridgeview Instruments) was utilized to assess binding interaction between live cells and Lutetium-177 labeled DUNP19 ([¹⁷⁷Lu]DUNP19). […] Internalization rate was studied by quantifying emitted fluorescence over time from SAOS2 cells incubated with pH-responsive dye-labeled DUNP19. Identification of colocalization of Alexa-488 labeled DUNP19 with intracellular markers (DAPI and LAMP1) in SAOS2 cells over time was applied to further confirm time of internalization.

- Kd: 0.329 nM
B1: Lutetium-177 labeled DUNP19 ([177Lu]DUNP19) (antibody, V domains shown)
VH: QVQLVQSGAEVKKPGASVKVSCKASGYTFTDYYIHWVRQAPGQGLEWMGWINPNSDGTNYAQNFLGRVTMTRDTSISTAYMELSRLRSDDSAVYHCVREGRYSTSPFDYWGQGTLVTVSS
VL: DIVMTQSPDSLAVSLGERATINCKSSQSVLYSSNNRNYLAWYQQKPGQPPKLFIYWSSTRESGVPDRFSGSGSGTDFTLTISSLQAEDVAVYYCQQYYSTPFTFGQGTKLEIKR
notes: also called 177Lu-DOTA-DUNP19

Source: patent publication US20230133775A1 (University of California, published 2023)
